Results on one molecule are retold here after US20130281374A1.

This assay addresses T1, human GIP receptor (human), P48546.
T1 chain: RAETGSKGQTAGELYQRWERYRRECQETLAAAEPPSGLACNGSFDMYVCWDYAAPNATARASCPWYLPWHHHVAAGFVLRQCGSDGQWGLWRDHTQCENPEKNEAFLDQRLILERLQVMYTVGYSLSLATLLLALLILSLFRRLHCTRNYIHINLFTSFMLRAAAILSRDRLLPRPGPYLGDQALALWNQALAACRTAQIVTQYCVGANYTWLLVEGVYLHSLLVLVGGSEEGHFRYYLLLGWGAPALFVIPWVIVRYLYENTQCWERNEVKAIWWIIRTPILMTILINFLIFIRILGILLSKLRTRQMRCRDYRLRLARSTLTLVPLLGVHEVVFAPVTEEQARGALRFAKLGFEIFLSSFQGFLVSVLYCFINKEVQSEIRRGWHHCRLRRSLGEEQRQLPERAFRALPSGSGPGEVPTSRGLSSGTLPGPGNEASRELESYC
Put plainly: 125I-GIP displacement, HEK-GIPR membranes.

In turn, HGEGTLISDYSIAMDKIHQQDFVNWLLAQKPKKIRYS (modifications not checked) [0601GIP4843] registered a % Inh 10 nM of 3%.
